Experimental findings from patent publication US20180282402A1 are described below.

B1: AB04-439 (antibody, V domains shown)
VH: QVQLVESGGGLVKPGGSLRLSCAASGFTFSDYYMTWIRQAPGKGLEWVSYISGSFRYTNYADSVKGRFTISRDNAKNSLYLQMNSLRDEDTAVYFCARYVYQVVAIGDLWGQGTLVTVSS
VL: DIQMTQSPSSVSASVGDRVTITCRASQGISSWLAWYQQKPGRAPKLLIFAASSLQSGVPSRFSGSGSGTHFTLTISSLQPEDFATYYCQQAESFPYTFGQGTKLEIK
B2: AB13-288 (IgG4-2 kappa) (antibody, V domains shown)
VH: QVQLVESGGGLVKPGGSLRLSCAASGFTFSDYYMSWIRQAPGKGLEWVSYISDKSRYTKYTDKVRGRFTISRDNAKNSLYLQMNSLRAEDTAVYYCARYLYQVIAIADAWGQGTLVTVSS
VL: DIQMTQSPSSVSASVGDRVTITCRASQGISSWLAWFQQKPGKAPKLLIFVASNLESGVPSRFSGSGSGTDFTLTISSLQPEDFATYYCQQAESFPYTFGQGTKLEIK
B3: AB13-288 (IgG1m(zf) kappa) (antibody, V domains shown)
VH: QVQLVESGGGLVKPGGSLRLSCAASGFTFSDYYMSWIRQAPGKGLEWVSYISDKSRYTKYTDKVRGRFTISRDNAKNSLYLQMNSLRAEDTAVYYCARYLYQVIAIADAWGQGTLVTVSS
VL: DIQMTQSPSSVSASVGDRVTITCRASQGISSWLAWFQQKPGKAPKLLIFVASNLESGVPSRFSGSGSGTDFTLTISSLQPEDFATYYCQQAESFPYTFGQGTKLEIK
B4: AB13-112 (IgG1m(za) kappa) (antibody, V domains shown)
VH: QVQLVESGGGLVKPGGSLRLSCAASGFTFSDYYMSWIRQAPGKGLEWVSYISDKSRYTKYTDKVRGRFTISRDNAKNSLYLQMNSLRAEDTAVYYCARYLYQVIAIADAWGQGTLVTVSS
VL: DIQMTQSPSSVSASVGDRVTITCRASQGISSWLAWFQQKPGKAPKLLIFVASNLESGVPSRFSGSGSGTDFTLTISSLQPEDFATYYCQQAESFPYTFGQGTKLEIK
B5: AB13-433 (antibody, V domains shown)
VH: QVQLVESGGGLVKPGGSLRLSCAASGFTFSDYYMSWIRQAPGKGLEWVSYISDSSTYTNYTDSVRGRFTISRDNAKNSLYLQMNSLRAEDTAVYYCARYLYQVIAVADSWGQGTLVTVSS
VL: DIQMTQSPSSVSASVGDRVTITCRASQGISSWLAWFQQKPGKAPKLLIYVASNLESGVPSRFSGSGSGTDFTLTISSLQPEDFATYYCQQANSFPYTFGQGTKLEIK
B6: AB13-112 (IgG4 kappa) (antibody, V domains shown)
VH: QVQLVESGGGLVKPGGSLRLSCAASGFTFSDYYMSWIRQAPGKGLEWVSYISDKSRYTKYTDKVRGRFTISRDNAKNSLYLQMNSLRAEDTAVYYCARYLYQVIAIADAWGQGTLVTVSS
VL: DIQMTQSPSSVSASVGDRVTITCRASQGISSWLAWFQQKPGKAPKLLIFVASNLESGVPSRFSGSGSGTDFTLTISSLQPEDFATYYCQQAESFPYTFGQGTKLEIK
B7: KL31-241 (antibody, V domains shown)
VH: QVQLVQSGAEVKKPGASVKVSCKASGYTFTDYCIGWIRQAPGQGLEWMGDICPGDAYTNDNEKFKDRATMTADTSTSTAYMELSSLRSEDTAVYYCARGEEQLGLRNAMDYWGQGTSVTVSS
VL: DIVMTQSPDSLAVSLGERATINCQSQSVSTSTYNYMHWYQQKPGQPPKLLIKYASNLESGVPDRFSGSGSGTDFTLTISSLQAEDVATYYCQHSWEIPWTFGGGTKLEIK
B8: KL31-532 (antibody, V domains shown)
VH: QVQLVQSGAEVKKPGASVKVSCKASGYTFTDYCIGWIRQAPGQGLEWMGDICPGDTYTNDNEKFKDRATMTADTSTSTAYMELSSLRSEDTAVYYCARGEEQLGLRNAMDYWGQGTLVTVSS
VL: DIVMTQSPDSLAVSLGERATINCQSQSVSTSTYNYMHWYQQKPGQPPKLLIKYASNLESGVPDRFSGSGSGTDFTLTISSLQAEDVATYYCGHSYEIPWTFGGGTKVEIK

The target in the test is Cyno HARS (cynomolgus monkey (Macaca fascicularis)). The test is described as follows: SPR (ProteOn); HRS protein immobilized, antibody as analyte.
For the molecule B1, the Kd is 0.075 nM.
Next, B2: 0.028 nM; B3: 0.002 nM.
Consider B4, for which the Kd is < 0.001 nM.
The result for B5 reads 0.24 nM; that for B6, < 0.001 nM.
Next, B7: 1.2 nM; B8: 0.056 nM.

For orientation: Kd means a measure of binding affinity in units of concentration.
